Data published in publication PMC12524980.

Molecular target: PpiC of E. faecium (mature PpiC, residues 25–336) (E. faecium)
Test: SEC-MALS; SEC coupled to light scattering (SEC-LS); 500 micrograms loaded on Superdex 200 increase 10/300 GL (PpiC) or Superdex 75 increase 10/300 GL (PpiC^ΔC); 50 mM Tris-HCl, 150 mM NaCl, 5% glycerol, pH 7.8; 0.5 mL/min

## PpiC of E. faecium (mature PpiC, residues 25–336) (enzyme)
  stoichiometry N: 2
